This is an account of results in article PMC3079244 (Biochemistry, 2011).

The target of data set [1] is TylM1 (Streptomyces fradiae, UniProt P95748). The experiment in a line: X-ray crystal structure, […] Å. Particulars: pH 7.0. The class given is binding.
Data set [2] concerns the molecule itself. The experiment in a line: crystal structure.
Data set [3] deals with the molecule itself. Nature of the data set: crystal structure. This is another data set of the same source.

Turning to `C[S+](CC[C@H](N)C(=O)O)C[C@H]1O[C@@H](n2cnc3c(N)ncnc32)[C@H](O)[C@@H]1O` (some centres unmarked) [SAM], the “X-ray crystal structure, 1.35 Å” value in data set [1] (ternary complex with dTDP-phenol, methyl donor site) is “The SAM cofactor abuts the first three β-strands of the N-terminal domain”.

In the case of `Cc1cn([C@H]2C[C@H](O)[C@@H](COP(=O)(O)OP(=O)(O)Oc3ccccc3)O2)c(=O)[nH]c1=O` [dTDP-phenol], in data set [1] (ternary complex with SAM, sugar-nucleotide site), the “X-ray crystal structure, 1.35 Å” value is listed as “a close-up view of the binding pocket for dTDP-phenol is presented”.

B1: TylM1 from Streptomyces fradiae (N,N-dimethyltransferase), wild type (enzyme, UniProt P95748 1-255, looked up)
chain: MAHSSATAGPQADYSGEIAELYDLVHQGKGKDYHREAADLAALVRRHSPKAASLLDVACGTGMHLRHLADSFGTVEGLELSADMLAIARRRNPDAVLHHGDMRDFSLGRRFSAVTCMFSSIGHLAGQAELDAALERFAAHVLPDGVVVVEPWWFPENFTPGYVAAGTVEAGGTTVTRVSHSSREGEATRIEVHYLVAGPDRGITHHEESHRITLFTREQYERAFTAAGLSVEFMPGGPSGRGLFTGLPGAKGETR
Regarding B1, in data set [2], the “stoichiometry N” value was determined as 2.

B2: TylM1 H123N mutant protein (enzyme, Streptomyces fradiae, UniProt P95748 1-255, looked up)
chain: MAHSSATAGPQADYSGEIAELYDLVHQGKGKDYHREAADLAALVRRHSPKAASLLDVACGTGMHLRHLADSFGTVEGLELSADMLAIARRRNPDAVLHHGDMRDFSLGRRFSAVTCMFSSIGNLAGQAELDAALERFAAHVLPDGVVVVEPWWFPENFTPGYVAAGTVEAGGTTVTRVSHSSREGEATRIEVHYLVAGPDRGITHHEESHRITLFTREQYERAFTAAGLSVEFMPGGPSGRGLFTGLPGAKGETR
As to B2, the binding result in data set [3] is “binds”.

B3: TylM1 H123A mutant protein (enzyme, Streptomyces fradiae, UniProt P95748 1-255, looked up)
chain: MAHSSATAGPQADYSGEIAELYDLVHQGKGKDYHREAADLAALVRRHSPKAASLLDVACGTGMHLRHLADSFGTVEGLELSADMLAIARRRNPDAVLHHGDMRDFSLGRRFSAVTCMFSSIGALAGQAELDAALERFAAHVLPDGVVVVEPWWFPENFTPGYVAAGTVEAGGTTVTRVSHSSREGEATRIEVHYLVAGPDRGITHHEESHRITLFTREQYERAFTAAGLSVEFMPGGPSGRGLFTGLPGAKGETR
For B3, in data set [3], the binding result is listed as “binds”.
